These results are taken from PMC5149022, “A ^99mTc-tricine-HYNIC-labeled Peptide Targeting the Melanocortin-1 Receptor for Melanoma Imaging” (Iranian Journal of Pharmaceutical Research : IJPR, 2016).

Bridge positions count the residues as written; N and C are the ends. Square brackets hold non-standard residues; d marks the D form. Peptide text beside a SMILES is read from it. * marks the point of attachment. HYNIC = NNc1ccc(C(=O)*)cn1; Nle = CCCC[C@H](N)C(=O)O; GABA = NCCCC(=O)O

Data set [1] can be described thus: Stability of radiolabeled peptide in human serum. As to conditions: fresh human serum, 37 °C, RP-HPLC with gamma detector. Format: in vitro ADME. The method, then:
(§1) The stability of radiolabeled peptide in aqueous solution was evaluated by incubation of the reaction mixture at ambient temperature (25 °C) up to 24 h. Stability in human serum at 37 °C was tested in parallel after adding 100 μL of reaction mixture to 1mL of fresh human serum. The incubation mixtures were sampled at 1,6 and 24 h time points. Serum samples (100–200 μL) were treated with ethanol (200–400 μL) and centrifuged (4000 g, 5 min, 4 °C) to precipitate the serum proteins.20–100 μL aliquots from the supernatant were separated to assess the degradation of ^99mTc labeled peptide by RP-HPLC. 100 μL aliquots from the 25 °C incubated mixture were passed from a 0.22 μ filter to eliminate the probable ^99mTc colloids and then, 5–20 μL of filtrate were analyzed by RP-HPLC as well.

The nature of data set [2]: Stability of radiolabeled peptide in aqueous solution. It counts as physicochemical. The method, then: as §1
Data set [3] is described as follows: Protein binding by precipitation method. It counts as in vitro ADME. The method, then:
Protein binding of radiolabeled peptide was measured by precipitationmethod resulting 37%forradioconjugate. Plasma proteins binding could be due to transchelation, which is possible with exchange reactions among co-ligands and the possible action of HYNIC as a mono- or bi-dentated ligand complexing ^99mTc.

For data set [4], the system named is B16/F10 tumor (MC1 receptor). Nature of the data set: Biodistribution in B16/F10 tumor bearing nude mice. Conditions: nude mice with B16/F10 tumor. It counts as in vivo. The method, then:
Animal experiments were performed in compliance with the regulations of our institution and with generally accepted guidelines governing such work.Groups of three nude mice were used in each experiment. A suspension of B16/F10 cells (1×10^7) in PBS was subcutaneously injected in the right flank of each nude mice. Seven days after inoculation, the tumors were inducted and then, ^99mTc-tricine-HYNIC-peptide (20 MBq) was injected via a femoral vein. Also a group of three animals were injected with peptide ([…]) in saline (0.9%; […]) as a co-injection with the radiopeptide (blocked animals). After 1, 4 and 24 h, the groups of mice were killed, then the organs of interest were excised, weighed and counted in the gamma counter. The percentage of the injected dose per gram (% ID/g) was calculated for each tissue. At 4 h after injection, accumulation of the tracer in tumor area was also assessed by planar scintigraphy under ether anesthesia.

Regarding `CCCC[C@H](NC(=O)CCCNC(=O)c1ccc(NN)nc1)C(=O)N[C@H]1CC(=O)NCCCC[C@@H](C(N)=O)NC(=O)CNC(=O)[C@H](Cc2c[nH]c3ccccc23)NC(=O)[C@H](CCCNC(=N)N)NC(=O)[C@@H](Cc2ccccc2)NC(=O)[C@H](Cc2c[nH]cn2)NC1=O` [^99mTc-tricine-HYNIC-peptide, ^99mTc-tricine-HYNIC-GABANle-CycMSHhept, metal not drawn] ({HYNIC-GABA}-[Nle]DH[dF]RWGK-NH2; lactam 2-8), the “labeling yield remaining after incubation in human serum” value in data set [1] (24 h) is 75%. The “stability in human serum (release of 99mTcO4- or peptide degradation)” value in data set [1] (100 μL reaction mixture in 1 mL serum, up to 6 h, ethanol precipitation) is recorded as “no significant release of ^99mTcO4^− or peptide degradation”. Also, the “labeling yield remaining after incubation in aqueous solution” value in data set [2] (reaction mixture, ambient temperature (25 °C), 24 h, RP-HPLC with gamma detector) stood at 75%. In addition, the “stability in aqueous solution (release of 99mTcO4- or peptide degradation)” value in data set [2] (reaction mixture, ambient temperature (25 °C), up to 6 h, 0.22 μ filtered, RP-HPLC with gamma detector) is reported as “no significant release of ^99mTcO4^− or peptide degradation”. In addition, the radiochemical stability result in data set [2] (up to 6 h post labeling) is recorded as “excellent radiochemical stability”. Also, the protein binding in data set [3] is recorded as 37%. In addition, in data set [4] (20 MBq via femoral vein, 1 h after injection, n = 3), the kidneys uptake is on record as 7.38 ± 0.56 % ID/g. The compound also registered a tumor uptake in data set [4] (20 MBq via femoral vein, 4 h, n = 3) of 4.51 ± 0.11 % ID/g. Besides, in data set [4] (1 h, n = 3), the blood uptake worked out at 1.26 ± 0.13 % ID/g, the intestines uptake worked out at 0.65±0.05 % ID/g and the liver uptake was found to be 1.48 ± 0.08 % ID/g. The “tumor uptake, blocked group” value in data set [4] (co-injection of cold peptide, time not stated) was 2.33 % ID/g. Also, in data set [4] (time not stated), the liver uptake entry is “lower than 2.0 % ID/g”.
